The values below come from patent US20250002577A1 (ONCORESPONSE, published 2025).

To fix the notation:
B1: B21H1-25 (antibody, human IgG1, kappa)
heavy: not shown
light: DIQMTQTPSTVEASVGGTVTITCQASGNIYSFLAWYQQKPGQPPKLLIYTASNLETGVPSRFSGSGSGTEYTLTISGLQSDDAATYYCLGGLYSSDVSYAFGGGTEVVVKRTVAAPSVFIFPPSDEQLKSGTASVVCLLNNFYPREAKVQWKVDNALQSGNSQESVTEQDSKDSTYSLSSTLTLSKADYEKHKVYACEVTHQGLSSPVTKSFNRGEC
notes: humanized IgG1/kappa, VH2+VL5
B2: B21H1-24 (antibody, human IgG1, kappa)
heavy: not shown
light: DVVMTQSPSTVSASVGDRVTLTCQASGNIYSFLAWYQQKPGQPPKLLIYTASNLETGVPDRFSGSGSGTDYTLTISSLQADDFATYYCLGGLYSSDVSYAFGQGTKVEIKRTVAAPSVFIFPPSDEQLKSGTASVVCLLNNFYPREAKVQWKVDNALQSGNSQESVTEQDSKDSTYSLSSTLTLSKADYEKHKVYACEVTHQGLSSPVTKSFNRGEC
notes: humanized IgG1/kappa, VH2+VL4
B3: B21H1-11 (antibody, human IgG1, kappa)
heavy: not shown
light: B2 light with V2I, V3Q, V11L, L21I, Q42K, P43A, D60S, D70E, A80P, Q103P
notes: humanized IgG1/kappa, VH1+VL1
B4: B21H1-43 (antibody, human IgG1, kappa)
heavy: not shown
light: DIVMTQSPSSVSASVGDRVTITCQASGNIYSFLAWYQQKPGKAPKLLIYTASNLETGVPSRFSGSGSGTDFTLTISSLQPEDFATYYCLGGLYSSDVSYAFGGGTKVVIKRTVAAPSVFIFPPSDEQLKSGTASVVCLLNNFYPREAKVQWKVDNALQSGNSQESVTEQDSKDSTYSLSSTLTLSKADYEKHKVYACEVTHQGLSSPVTKSFNRGEC
notes: humanized IgG1/kappa, VH4+VL3

Numbering of substitutions follows the chain as printed.

T12 sequence (O75023 24-590): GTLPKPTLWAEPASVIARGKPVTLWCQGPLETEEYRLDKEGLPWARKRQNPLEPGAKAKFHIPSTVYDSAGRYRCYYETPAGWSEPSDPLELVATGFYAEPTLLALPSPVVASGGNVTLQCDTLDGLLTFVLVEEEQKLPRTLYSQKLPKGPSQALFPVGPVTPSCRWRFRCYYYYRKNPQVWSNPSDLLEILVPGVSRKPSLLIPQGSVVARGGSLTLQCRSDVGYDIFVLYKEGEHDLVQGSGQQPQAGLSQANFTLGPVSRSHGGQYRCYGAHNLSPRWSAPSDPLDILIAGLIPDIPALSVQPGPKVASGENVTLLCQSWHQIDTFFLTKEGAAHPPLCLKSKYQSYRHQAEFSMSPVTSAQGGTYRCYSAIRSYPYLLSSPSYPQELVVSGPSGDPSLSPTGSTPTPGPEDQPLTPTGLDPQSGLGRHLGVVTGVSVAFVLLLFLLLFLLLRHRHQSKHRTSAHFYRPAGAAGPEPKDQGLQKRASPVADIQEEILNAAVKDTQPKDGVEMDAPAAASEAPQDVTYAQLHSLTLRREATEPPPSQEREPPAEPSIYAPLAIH
T7 sequence (A6NI73 42-299): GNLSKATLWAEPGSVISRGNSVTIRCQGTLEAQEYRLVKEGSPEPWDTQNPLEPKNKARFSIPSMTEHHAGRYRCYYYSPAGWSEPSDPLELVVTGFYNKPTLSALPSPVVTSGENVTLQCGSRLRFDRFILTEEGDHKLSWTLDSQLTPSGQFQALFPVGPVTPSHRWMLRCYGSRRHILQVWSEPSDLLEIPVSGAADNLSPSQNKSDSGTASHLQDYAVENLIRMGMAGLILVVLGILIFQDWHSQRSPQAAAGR
T2 sequence (Q8NHL6 24-458 limits assumed): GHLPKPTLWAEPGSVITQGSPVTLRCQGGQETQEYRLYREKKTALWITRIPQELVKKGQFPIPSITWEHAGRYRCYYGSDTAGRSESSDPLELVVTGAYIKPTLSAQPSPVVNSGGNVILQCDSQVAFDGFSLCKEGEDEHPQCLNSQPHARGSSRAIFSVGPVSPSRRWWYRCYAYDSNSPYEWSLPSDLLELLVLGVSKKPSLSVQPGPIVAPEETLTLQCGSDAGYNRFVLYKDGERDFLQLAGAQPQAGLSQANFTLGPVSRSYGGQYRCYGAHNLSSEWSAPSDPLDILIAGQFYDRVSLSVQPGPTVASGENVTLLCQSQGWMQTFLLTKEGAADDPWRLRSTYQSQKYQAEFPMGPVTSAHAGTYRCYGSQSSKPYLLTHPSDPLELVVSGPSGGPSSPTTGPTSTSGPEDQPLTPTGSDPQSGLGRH
T9 sequence (P59901 24-499): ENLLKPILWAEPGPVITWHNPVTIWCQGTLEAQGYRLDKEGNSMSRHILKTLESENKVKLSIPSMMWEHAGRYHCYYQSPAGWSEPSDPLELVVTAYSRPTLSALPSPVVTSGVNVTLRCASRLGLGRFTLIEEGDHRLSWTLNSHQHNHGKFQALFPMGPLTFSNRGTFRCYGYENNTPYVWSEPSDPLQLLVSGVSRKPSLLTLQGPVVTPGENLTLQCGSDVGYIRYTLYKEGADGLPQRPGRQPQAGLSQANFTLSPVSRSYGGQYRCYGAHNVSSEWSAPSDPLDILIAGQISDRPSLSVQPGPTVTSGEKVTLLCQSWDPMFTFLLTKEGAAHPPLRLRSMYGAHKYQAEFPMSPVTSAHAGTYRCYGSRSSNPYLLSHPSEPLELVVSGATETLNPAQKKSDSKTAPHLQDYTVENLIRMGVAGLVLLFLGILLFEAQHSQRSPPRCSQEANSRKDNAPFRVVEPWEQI

One experiment has as its target T1, recombinant cynomolgus LILRB1 (cynomolgus).
T1 construct: Bought protein
Nature of the experiment: MSD ELISA, coated antigen, purified IgG1. On the technique in general: ELISA stands for enzyme-linked immunosorbent assay.
For the molecule B1, the EC50 worked out at 0.377 µg/mL.

In the case of B2, the EC50 is 0.286 µg/mL.

Regarding B3, the EC50 is 4.4 µg/mL.

With B4, the EC50 came out at 1.51 µg/mL.

Another experiment concerns the target T2, recombinant human LILRB1-His (human, UniProt Q8NHL6 24-458).
T2 construct: Bought protein; also called LILRB1 protein
Kind of experiment: MSD ELISA, coated antigen, purified IgG1.
On to B1, for which the EC50 came out at 0.0095 µg/mL.

With B2, the EC50 came to 0.00864 µg/mL.

B3: the EC50 stood at 0.00734 µg/mL.

Turning to B4, the EC50 came to 0.00734 µg/mL.

The target of the next experiment is T3, recombinant human LILRB2-His (human, UniProt Q8N423 22-461, limits assumed).
T3 construct: Bought protein; also called LILRB2 protein
T3 sequence (Q8N423 22-461 limits assumed): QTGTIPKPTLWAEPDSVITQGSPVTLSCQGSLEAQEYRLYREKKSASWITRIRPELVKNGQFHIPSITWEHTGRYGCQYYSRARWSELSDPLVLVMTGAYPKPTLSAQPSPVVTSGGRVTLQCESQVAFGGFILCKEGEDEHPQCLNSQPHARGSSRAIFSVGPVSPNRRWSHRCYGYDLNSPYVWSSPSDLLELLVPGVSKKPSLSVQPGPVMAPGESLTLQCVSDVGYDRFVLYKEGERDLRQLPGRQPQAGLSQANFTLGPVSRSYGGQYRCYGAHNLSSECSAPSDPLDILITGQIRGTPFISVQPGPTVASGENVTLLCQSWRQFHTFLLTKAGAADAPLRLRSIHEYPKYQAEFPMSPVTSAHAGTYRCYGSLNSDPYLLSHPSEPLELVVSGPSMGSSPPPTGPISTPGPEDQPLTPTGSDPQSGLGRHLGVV
Nature of the experiment: MSD ELISA, coated antigen, purified IgG1.
As for B1, the EC50 turned out to be 0.0318 µg/mL.

In the case of B2, the EC50 turned out to be 0.0287 µg/mL.

B3: the EC50 turned out to be 0.0306 µg/mL.

As for B4, the EC50 turned out to be 0.0248 µg/mL.

The target of the next experiment is T4, human LILRB2 on cells (human, UniProt Q8N423 22-597).
T4 construct: whole, on cells; also called hLILRB2; LILRB2-HEK293T
Nature of the experiment: flow cytometry, LILRB2-HEK293T cells, AF647-labelled antibody. Summed up:
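Cells were blocked 30 min at 4° C in FACS buffer with 10% FBS and 0.5 mg/mL human IgG1. AF647-labelled antibodies were then bound for 1 h at 4° C. After Zombie Violet viability staining, binding was read by flow cytometry.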
A general note: In flow cytometry, cells or beads pass a laser one at a time.
Regarding B1, the response was half-maximal at 0.0009 µg/mL (EC50).

For the molecule B2, the EC50 was 0.00142 µg/mL.

As for B3, the EC50 was found to be 0.00107 µg/mL.

In the case of B4, the response was half-maximal at 0.00135 µg/mL (EC50).

The target in the next experiment is T5, human LILRB1 on cells (human, UniProt Q8NHL6 24-650).
T5 construct: whole, on cells; also called hLILRB1; LILRB1-expressing 721.221 cells
T5 sequence (Q8NHL6 24-650): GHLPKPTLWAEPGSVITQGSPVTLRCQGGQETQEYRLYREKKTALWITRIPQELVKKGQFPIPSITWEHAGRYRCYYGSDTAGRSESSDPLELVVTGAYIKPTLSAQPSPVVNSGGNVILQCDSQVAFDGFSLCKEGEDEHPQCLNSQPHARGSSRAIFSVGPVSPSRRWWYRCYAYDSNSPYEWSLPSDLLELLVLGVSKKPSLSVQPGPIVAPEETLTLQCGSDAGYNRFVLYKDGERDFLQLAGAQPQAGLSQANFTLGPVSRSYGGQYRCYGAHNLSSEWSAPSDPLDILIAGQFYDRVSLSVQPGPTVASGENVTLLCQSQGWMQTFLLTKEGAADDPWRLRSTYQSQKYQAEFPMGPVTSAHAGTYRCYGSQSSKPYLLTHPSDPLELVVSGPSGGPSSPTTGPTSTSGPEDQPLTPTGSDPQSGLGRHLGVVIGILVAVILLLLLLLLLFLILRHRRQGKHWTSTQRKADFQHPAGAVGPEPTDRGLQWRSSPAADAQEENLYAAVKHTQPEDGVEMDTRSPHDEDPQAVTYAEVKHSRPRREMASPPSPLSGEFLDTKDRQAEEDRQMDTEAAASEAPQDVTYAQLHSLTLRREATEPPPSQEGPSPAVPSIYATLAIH
Kind of experiment: flow cytometry, 721.221 cells, AF647-labelled antibody. How it is done: While LILRB2 expression is mostly restricted to myeloid cells, LILRB1 has a broader expression on immune cell subsets, including B cells, T cells and NK cells.
Frozen cells were removed from storage in vapor phase liquid nitrogen and thawed by gentle swirling in a water bath at 37° C., then resuspended in DMEM media with 10% FBS. Cells were placed in a 15 mL conical tube and centrifuged at 300×g for 5 min, then supernatant was removed. Cells were resuspended in DMEM+10% FBS at a cell density of 2×10⁵ cells/mL in a T75 flask for culturing, and incubated at 37° C., 5% CO₂ for 3 days before passaging. Cells were passaged when the cell density reached 1×10⁶ cell/mL. On the day of the assay, cells were centrifuged, then supernatant was removed. Cells were resuspended in Blocking Buffer B (FACS Buffer containing 10% FBS and 0.5 mg/mL human IgG1 (Athens Research, No. 16-16-090707-1M)+0.05% NaN₃, 5% (w/v)) in a 15 mL conical tube, then incubated at 4° C. for 30 min. […] Cells were incubated with antibodies at 4° C. for 1 h. Cells were washed twice in FACS Buffer (PBS containing 2 mM EDTA+1% FBS+0.05% NaN₃) and then stained with for 10 min with Zombie Violet™ fixable viability dye (BioLegend, No. 423114) at RT, washed with FACS Buffer and resuspend in 75 μL of FACS Buffer for acquisition on a BD FACSymphony™ or BD FACSCanto™ II flow cytometer (BD Biosciences), as described in Example 6.
For the molecule B1, the EC50 amounted to 0.0782 µg/mL.

Take B2: the EC50 worked out at 0.0595 µg/mL.

On to B3, for which the EC50 is 0.203 µg/mL.

In turn, B4 came in with an EC50 of 0.0515 µg/mL.

The next experiment deals with T6, human LILRA6 on HEK293-6E cells (human, UniProt Q6PI73 24-481).
T6 construct: whole, on cells; also called hLILRA6
T6 sequence (Q6PI73 24-481): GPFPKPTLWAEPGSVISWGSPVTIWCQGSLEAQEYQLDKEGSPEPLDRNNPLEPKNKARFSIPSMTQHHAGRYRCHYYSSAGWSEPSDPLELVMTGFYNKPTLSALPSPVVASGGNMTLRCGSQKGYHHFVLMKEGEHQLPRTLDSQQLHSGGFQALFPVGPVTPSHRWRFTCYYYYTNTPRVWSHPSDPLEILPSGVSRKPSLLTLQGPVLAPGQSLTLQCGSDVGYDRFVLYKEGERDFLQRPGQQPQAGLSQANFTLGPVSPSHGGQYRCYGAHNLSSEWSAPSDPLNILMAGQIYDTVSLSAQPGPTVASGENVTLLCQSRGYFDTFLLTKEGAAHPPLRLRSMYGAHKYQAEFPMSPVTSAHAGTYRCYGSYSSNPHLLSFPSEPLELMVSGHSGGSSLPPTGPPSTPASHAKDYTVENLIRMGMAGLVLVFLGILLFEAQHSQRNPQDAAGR
Nature of the experiment: flow cytometry, HEK293-6E transfectants. In a few lines: (§1)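 Antibody binding measured by flow cytometry on HEK293-6E cells transiently transfected with individual human LILRB (1–5) or LILRA (1, 2, 4, 5, 6) plasmids. Antibodies tested at 1 μg/mL.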
B1: the MFI is 148 MFI and the binding result is reported as “no binding (tested: 1 µg/mL)”.

With B2, the MFI amounted to 141 MFI and the binding result was “no binding (tested: 1 µg/mL)”.

As for B3, the MFI came out at 152 MFI and the binding result is “no binding (tested: 1 µg/mL)”.

For the molecule B4, the MFI was determined as 141 MFI and the binding result is recorded as “no binding (tested: 1 µg/mL)”.

The next experiment has as its target T7, human LILRA5 on HEK293-6E cells (human, UniProt A6NI73 42-299).
T7 construct: whole, on cells; also called hLILRA5
Nature of the experiment: flow cytometry, HEK293-6E transfectants. In a few lines:
as §1
Consider B1, for which the MFI is 78.2 MFI and the binding result is listed as “no binding (tested: 1 µg/mL)”.

B2: the MFI stood at 74.5 MFI and the binding result was “no binding (tested: 1 µg/mL)”.

Consider B3, for which the MFI amounted to 76 MFI and the binding result is “no binding (tested: 1 µg/mL)”.

As for B4, the MFI is 71.8 MFI and the binding result is on record as “no binding (tested: 1 µg/mL)”.

A further experiment deals with T8, human LILRA1 on HEK293-6E cells (human, UniProt O75019 17-489).
T8 construct: whole, on cells; also called hLILRA1
T8 sequence (O75019 17-489): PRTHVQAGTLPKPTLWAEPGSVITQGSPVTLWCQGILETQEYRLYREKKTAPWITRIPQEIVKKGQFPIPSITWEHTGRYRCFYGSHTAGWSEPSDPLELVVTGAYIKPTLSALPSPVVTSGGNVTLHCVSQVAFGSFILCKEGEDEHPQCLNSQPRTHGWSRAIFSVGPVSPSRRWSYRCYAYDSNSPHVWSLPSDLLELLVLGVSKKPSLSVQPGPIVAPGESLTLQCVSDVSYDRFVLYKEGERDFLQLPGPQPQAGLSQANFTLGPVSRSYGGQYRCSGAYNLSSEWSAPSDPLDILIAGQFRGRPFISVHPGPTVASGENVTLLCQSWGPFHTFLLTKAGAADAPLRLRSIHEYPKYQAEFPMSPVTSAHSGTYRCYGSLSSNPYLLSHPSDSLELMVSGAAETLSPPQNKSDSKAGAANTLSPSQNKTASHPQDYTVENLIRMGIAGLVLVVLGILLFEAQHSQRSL
Kind of experiment: flow cytometry, HEK293-6E transfectants. In a few lines: as §1
On to B1, for which the MFI was 280 MFI and the binding result is “no binding (tested: 1 µg/mL)”.

Consider B2, for which the MFI is 246 MFI and the binding result is “no binding (tested: 1 µg/mL)”.

As to B3, the MFI was 244 MFI and the binding result is “no binding (tested: 1 µg/mL)”.

On to B4, for which the MFI worked out at 220 MFI and the binding result is on record as “no binding (tested: 1 µg/mL)”.

Another experiment concerns the target T9, human LILRA4 on HEK293-6E cells (human, UniProt P59901 24-499).
T9 construct: whole, on cells; also called hLILRA4
Nature of the experiment: flow cytometry, HEK293-6E transfectants. Summed up:
as §1
Regarding B1, the MFI was determined as 138 MFI and the binding result is recorded as “no binding (tested: 1 µg/mL)”.

With B2, the MFI is 125 MFI and the binding result is listed as “no binding (tested: 1 µg/mL)”.

B3: the MFI turned out to be 140 MFI and the binding result is “no binding (tested: 1 µg/mL)”.

As to B4, the MFI was found to be 114 MFI and the binding result is listed as “no binding (tested: 1 µg/mL)”.

The next experiment has as its target T10, human LILRB4 on HEK293-6E cells (human, UniProt Q8NHJ6 22-448).
T10 construct: whole, on cells; also called hLILRB4
Kind of experiment: flow cytometry, HEK293-6E transfectants. In a few lines:
as §1
Consider B1, for which the MFI is 32.4 MFI and the binding result is on record as “no binding (tested: 1 µg/mL)”.

Take B2: the MFI came out at 28.6 MFI and the binding result is recorded as “no binding (tested: 1 µg/mL)”.

Turning to B3, the MFI was found to be 32.4 MFI and the binding result is recorded as “no binding (tested: 1 µg/mL)”.

For B4, the MFI was 26.5 MFI and the binding result was “no binding (tested: 1 µg/mL)”.

A further experiment addresses T4, human LILRB2 on cells. Kind of experiment: flow cytometry, HEK293-6E transfectants. Summed up:
as §1
The molecule B1 registered an MFI of 5320 MFI.

B2 gave an MFI of 6050 MFI.

As for B3, the MFI amounted to 5090 MFI.

Take B4: the MFI was found to be 6370 MFI.

For another experiment, the target named is T11, human LILRB3 on HEK293-6E cells (human, UniProt O75022 24-631).
T11 construct: whole, on cells; also called hLILRB3
T11 sequence (O75022 24-631): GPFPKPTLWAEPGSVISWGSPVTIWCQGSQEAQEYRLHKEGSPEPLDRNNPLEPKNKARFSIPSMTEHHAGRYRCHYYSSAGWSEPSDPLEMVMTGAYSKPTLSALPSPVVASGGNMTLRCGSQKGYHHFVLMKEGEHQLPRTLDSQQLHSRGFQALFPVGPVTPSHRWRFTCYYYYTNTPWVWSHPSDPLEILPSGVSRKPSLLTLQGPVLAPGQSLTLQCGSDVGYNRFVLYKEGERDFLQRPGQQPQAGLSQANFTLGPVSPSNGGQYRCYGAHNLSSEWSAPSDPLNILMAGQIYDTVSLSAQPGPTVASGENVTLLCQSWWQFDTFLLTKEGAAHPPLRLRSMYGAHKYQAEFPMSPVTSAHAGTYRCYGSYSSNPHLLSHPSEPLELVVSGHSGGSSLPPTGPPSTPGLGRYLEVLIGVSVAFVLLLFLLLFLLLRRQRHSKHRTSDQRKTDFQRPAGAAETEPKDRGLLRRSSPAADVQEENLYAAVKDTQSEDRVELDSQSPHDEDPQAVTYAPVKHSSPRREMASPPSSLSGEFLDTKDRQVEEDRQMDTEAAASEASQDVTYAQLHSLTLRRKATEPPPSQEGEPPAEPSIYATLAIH
Nature of the experiment: flow cytometry, HEK293-6E transfectants. Summed up: as §1
In the case of B1, the MFI came to 93.9 MFI and the binding result is listed as “no binding (tested: 1 µg/mL)”.

Regarding B2, the MFI stood at 86.2 MFI and the binding result was “no binding (tested: 1 µg/mL)”.

Take B3: the MFI was determined as 102 MFI and the binding result is listed as “no binding (tested: 1 µg/mL)”.

B4: the MFI is 79.2 MFI and the binding result is given as “no binding (tested: 1 µg/mL)”.

For a further experiment, the target named is T5, human LILRB1 on cells. Nature of the experiment: flow cytometry, HEK293-6E transfectants. Summed up: as §1
In turn, B1 registered an MFI of 990 MFI.

On to B2, for which the MFI was determined as 985 MFI.

Consider B3, for which the MFI came to 1000 MFI.

In turn, B4 returned an MFI of 1120 MFI.

The next experiment concerns the target T12, human LILRB5 on HEK293-6E cells (human, UniProt O75023 24-590).
T12 construct: whole, on cells; also called hLILRB5
Kind of experiment: flow cytometry, HEK293-6E transfectants. Summed up:
as §1
Take B1: the MFI is 90.6 MFI and the binding result was “no binding (tested: 1 µg/mL)”.

With B2, the MFI stood at 87 MFI and the binding result is “no binding (tested: 1 µg/mL)”.

With B3, the MFI turned out to be 93.4 MFI and the binding result was “no binding (tested: 1 µg/mL)”.

As to B4, the MFI is 85.5 MFI and the binding result is “no binding (tested: 1 µg/mL)”.

In another experiment the target is T13, human LILRA2 on HEK293-6E cells (human, UniProt Q8N149 24-483).
T13 construct: whole, on cells; also called hLILRA2
T13 sequence (Q8N149 24-483): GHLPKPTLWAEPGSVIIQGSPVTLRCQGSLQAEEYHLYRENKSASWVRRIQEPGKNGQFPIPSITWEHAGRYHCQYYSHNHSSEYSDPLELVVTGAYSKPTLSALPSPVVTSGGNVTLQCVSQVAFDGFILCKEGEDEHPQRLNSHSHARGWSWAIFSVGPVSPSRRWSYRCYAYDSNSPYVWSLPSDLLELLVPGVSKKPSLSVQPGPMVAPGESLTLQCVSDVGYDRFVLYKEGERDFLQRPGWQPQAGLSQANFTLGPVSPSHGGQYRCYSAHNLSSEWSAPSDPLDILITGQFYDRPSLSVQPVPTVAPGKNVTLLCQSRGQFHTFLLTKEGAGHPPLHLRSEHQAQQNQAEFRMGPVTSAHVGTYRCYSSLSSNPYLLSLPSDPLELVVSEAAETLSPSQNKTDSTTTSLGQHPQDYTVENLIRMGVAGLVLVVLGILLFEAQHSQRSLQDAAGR
Nature of the experiment: flow cytometry, HEK293-6E transfectants. In a few lines: as §1
For B1, the MFI turned out to be 27.4 MFI and the binding result is “no binding (tested: 1 µg/mL)”.

Regarding B2, the MFI was 25.6 MFI and the binding result is “no binding (tested: 1 µg/mL)”.

Consider B3, for which the MFI is 27.8 MFI and the binding result was “no binding (tested: 1 µg/mL)”.

As to B4, the MFI came to 25.2 MFI and the binding result is listed as “no binding (tested: 1 µg/mL)”.

What is called EC50 is the concentration at which the effect is half-maximal.
